B1: BCOR^N1591/PCGF1^RAWUL dimer (complex)
chain 1: DDDASGTWDFYGSSVCEPDDESGYDVLANPPGPEDQDDDDDAYSDVFEFEFSETPLLPCYNIQVSVAQGPRNWLLLSDVLKKLKMSSRIFRCNFPNVEIVTIAEAEFYRQVSASLLFSCSKDLEAFNPESKELLDLVEFTNEIQTLLGSSVEWLHPSDLASDNYW
chain 2: LPFSSFDHSKAHYYRYDEQLNLCLERLSSGKDKNKSVLQNKYVRCSVRAEVRHLRRVLCHRLMLNPQHVQLLFDNEVLPDHMTMKQIWLSRWFGKPSPLLLQYSVK
B2: BCOR^N1624/PCGF1^RAWUL dimer (complex)
chain 1: EDQDDDDDAYSDVFEFEFSETPLLPCYNIQVSVAQGPRNWLLLSDVLKKLKMSSRIFRCNFPNVEIVTIAEAEFYRQVSASLLFSCSKDLEAFNPESKELLDLVEFTNEIQTLLGSSVEWLHPSDLASDNYW
chain 2: LPFSSFDHSKAHYYRYDEQLNLCLERLSSGKDKNKSVLQNKYVRCSVRAEVRHLRRVLCHRLMLNPQHVQLLFDNEVLPDHMTMKQIWLSRWFGKPSPLLLQYSVK
B3: BCOR^N1612/PCGF1^RAWUL dimer (complex)
chain 1: SGYDVLANPPGPEDQDDDDDAYSDVFEFEFSETPLLPCYNIQVSVAQGPRNWLLLSDVLKKLKMSSRIFRCNFPNVEIVTIAEAEFYRQVSASLLFSCSKDLEAFNPESKELLDLVEFTNEIQTLLGSSVEWLHPSDLASDNYW
chain 2: LPFSSFDHSKAHYYRYDEQLNLCLERLSSGKDKNKSVLQNKYVRCSVRAEVRHLRRVLCHRLMLNPQHVQLLFDNEVLPDHMTMKQIWLSRWFGKPSPLLLQYSVK
B4: BCOR^N1594/PCGF1^RAWUL dimer (complex)
chain 1: ASGTWDFYGSSVCEPDDESGYDVLANPPGPEDQDDDDDAYSDVFEFEFSETPLLPCYNIQVSVAQGPRNWLLLSDVLKKLKMSSRIFRCNFPNVEIVTIAEAEFYRQVSASLLFSCSKDLEAFNPESKELLDLVEFTNEIQTLLGSSVEWLHPSDLASDNYW
chain 2: LPFSSFDHSKAHYYRYDEQLNLCLERLSSGKDKNKSVLQNKYVRCSVRAEVRHLRRVLCHRLMLNPQHVQLLFDNEVLPDHMTMKQIWLSRWFGKPSPLLLQYSVK
B5: BCOR^N1607/PCGF1^RAWUL dimer (complex)
chain 1: EPDDESGYDVLANPPGPEDQDDDDDAYSDVFEFEFSETPLLPCYNIQVSVAQGPRNWLLLSDVLKKLKMSSRIFRCNFPNVEIVTIAEAEFYRQVSASLLFSCSKDLEAFNPESKELLDLVEFTNEIQTLLGSSVEWLHPSDLASDNYW
chain 2: LPFSSFDHSKAHYYRYDEQLNLCLERLSSGKDKNKSVLQNKYVRCSVRAEVRHLRRVLCHRLMLNPQHVQLLFDNEVLPDHMTMKQIWLSRWFGKPSPLLLQYSVK
B6: BCOR^ANK-linker (residues 1461-1635) (domain or fragment, UniProt Q6W2J9 1461-1635, looked up)
chain: NAGETLLQRAARLGYEEVVLYCLENKICDVNHRDNAGYCALHEACARGWLNIVRHLLEYGADVNCSAQDGTRPLHDAVENDHLEIVRLLLSYGADPTLATYSGRTIMKMTHSELMEKFLTDYLNDLQGRNDDDASGTWDFYGSSVCEPDDESGYDVLANPPGPEDQDDDDDAYSD

The first test deals with T1, KDM2B^F-box-LRRs/SKP1 dimer (UniProt Q8NHM5 1059-1336; P63208 2-163). The test can be described thus: ITC. In general terms: ITC needs no label: the signal is the heat of the interaction.
T1 sequence (Q8NHM5 1059-1336, chain 1 of 2): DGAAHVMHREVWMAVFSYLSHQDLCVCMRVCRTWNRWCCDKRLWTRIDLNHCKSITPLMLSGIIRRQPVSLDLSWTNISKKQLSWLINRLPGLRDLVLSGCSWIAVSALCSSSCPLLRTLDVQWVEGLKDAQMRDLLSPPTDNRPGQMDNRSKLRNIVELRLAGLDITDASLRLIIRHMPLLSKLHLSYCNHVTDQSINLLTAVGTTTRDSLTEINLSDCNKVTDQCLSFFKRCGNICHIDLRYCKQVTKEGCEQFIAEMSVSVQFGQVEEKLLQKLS
T1 sequence (P63208 2-163, chain 2 of 2): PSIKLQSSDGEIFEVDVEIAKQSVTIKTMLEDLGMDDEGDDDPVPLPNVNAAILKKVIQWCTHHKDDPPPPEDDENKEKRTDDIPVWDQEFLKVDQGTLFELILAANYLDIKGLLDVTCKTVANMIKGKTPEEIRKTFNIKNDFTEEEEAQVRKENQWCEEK
In the case of B1, the Kd (usually the constant that tells how readily two partners part at equilibrium) was 240 nM. This counts as sub-micromolar. Same read-out and setting: as for B2, the figure is 5930 nM. Still for that read-out and setting: as for B3, the figure is 850 nM.

B4 came in with a Kd of 250 nM. As for B5, the Kd turned out to be 270 nM.

In a further test the target is T1, KDM2B^F-box-LRRs/SKP1 dimer. Description: ITC. The source holds these as a separate data set.
Regarding B6, the Kd came out at 6350 nM.

Values taken from PMC11387744 (Communications Biology, 2024).
